Patent publication US20230242586A1, “RAS INHIBITORS AND USES THEREOF” (The Regents of the University of California, priority 2020, published 2023)

Target: biotinylated wildtype K-Ras·GppNHp (His-Avi-TEV-KRAS (wildtype)) (human)
Test: TR-FRET Ras-Raf interaction assay (competition); reference K-Ras(G12D)

bicyclic variant of KD2 (Val3 and Arg9 replaced with two cysteines) (peptide)
fold IC50 on wildtype K-Ras against that for K-Ras(G12D): > 20 fold

bicyclic variant of KD2 (Val3 and Arg9 replaced with azidoalanine and propargylglycine) (peptide)
fold IC50 on wildtype K-Ras against that for K-Ras(G12D): > 20 fold
